Source: patent US20200040086A1 (BERLIN CHEMIE, published 2020)

Tests used:
Assay in all cases: peptide microarray of 8mer LY75 peptides, LY75_A1 at 1 µg/mL, anti-human IgG Alexa 647
SCYKVFHA = biological target: T1, SCYKVFHA
T1 construct: 8mer of LY75 on the peptide microarray, chart Region 2
T1 peptide: SCYKVFHA
Protocol: (§1) The peptide microarray analysis was performed by LC Sciences, Houston Tex., in brief the method comprised the following steps:—Contiguous 8mer peptides of LY75 protein having […] spanning residues 216 to 1666 of the full length LY75 protein were synthesized and immobilized on a microarray chip. The chip comprised three panels such that the experiment was performed in triplicate. The microarray was addressed with LY75_A1 to identify the peptides to which the antibody bound. The binding assay was performed under the following conditions:—
(§2) The microarray comprising the contiguous peptides in triplicate was washed with 1 mL of binding buffer at 4° C. for 20 min. It was then incubated with 1 μg/mL LY75_A1 in binding buffer (pH 7.0) at 4° C. for 2 hrs. The array was again washed with 0.5 mL of washing buffer at 4° C. for 30 min then incubated with 25 ng/mL anti-human IgG Alexa 647 conjugate in binding buffer (pH 7.0) at 4° C. for 1 hr. The array was again washed with 0.5 mL of washing buffer at 4° C. for 30 min.

EVKDCRSF = biological target: T2, EVKDCRSF
T2 construct: 8mer of LY75 on the peptide microarray, chart Region 1
T2 peptide: EVKDCRSF
Protocol: as §1, §2

PWRRGWHF = biological target: T3, PWRRGWHF
T3 construct: 8mer of LY75 on the peptide microarray, chart Region 3
T3 peptide: PWRRGWHF
Protocol: as §1, §2

RRGWHFYD = biological target: T4, RRGWHFYD
T4 construct: 8mer of LY75 on the peptide microarray, chart Region 3
T4 peptide: RRGWHFYD
Protocol: as §1, §2

YDDREFIY = biological target: T5, YDDREFIY
T5 construct: 8mer of LY75 on the peptide microarray, chart Region 3
T5 peptide: YDDREFIY
Protocol: as §1, §2

PIDDHFTY = biological target: T6, PIDDHFTY
T6 construct: 8mer of LY75 on the peptide microarray, chart Region 4
T6 peptide: PIDDHFTY
Protocol: as §1, §2

DDHFTYSR = biological target: T7, DDHFTYSR
T7 construct: 8mer of LY75 on the peptide microarray, chart Region 4
T7 peptide: DDHFTYSR
Protocol: as §1, §2

SRYPWHRF = biological target: T8, SRYPWHRF
T8 construct: 8mer of LY75 on the peptide microarray, chart Region 4
T8 peptide: SRYPWHRF
Protocol: as §1, §2

RYPWHRFP = biological target: T9, RYPWHRFP
T9 construct: 8mer of LY75 on the peptide microarray, chart Region 4
T9 peptide: RYPWHRFP
Protocol: as §1, §2

RELTYSNF = biological target: T10, RELTYSNF
T10 construct: 8mer of LY75 on the peptide microarray, chart Region 5
T10 peptide: RELTYSNF
Protocol: as §1, §2

LTYSNFHP = biological target: T11, LTYSNFHP
T11 construct: 8mer of LY75 on the peptide microarray, chart Region 5
T11 peptide: LTYSNFHP
Protocol: as §1, §2

TYSNFHPL = biological target: T12, TYSNFHPL
T12 construct: 8mer of LY75 on the peptide microarray, chart Region 5
T12 peptide: TYSNFHPL
Protocol: as §1, §2

YSNFHPLL = biological target: T13, YSNFHPLL
T13 construct: 8mer of LY75 on the peptide microarray, chart Region 5
T13 peptide: YSNFHPLL
Protocol: as §1, §2

TSCSERHF = biological target: T14, TSCSERHF
T14 construct: 8mer of LY75 on the peptide microarray, chart Region 6
T14 peptide: TSCSERHF
Protocol: as §1, §2

VSLCQKYS = biological target: T15, VSLCQKYS
T15 construct: 8mer of LY75 on the peptide microarray, chart Region 6
T15 peptide: VSLCQKYS
Protocol: as §1, §2

VKYLNNLY = biological target: T16, VKYLNNLY
T16 construct: 8mer of LY75 on the peptide microarray, chart Region 7
T16 peptide: VKYLNNLY
Protocol: as §1, §2

YLNNLYKI = biological target: T17, YLNNLYKI
T17 construct: 8mer of LY75 on the peptide microarray, chart Region 7
T17 peptide: YLNNLYKI
Protocol: as §1, §2

EAVYFHQH = biological target: T18, EAVYFHQH
T18 construct: 8mer of LY75 on the peptide microarray, chart Region 8
T18 peptide: EAVYFHQH
Protocol: as §1, §2

AVYFHQHS = biological target: T19, AVYFHQHS
T19 construct: 8mer of LY75 on the peptide microarray, chart Region 8
T19 peptide: AVYFHQHS
Protocol: as §1, §2

SLSCYKVF = biological target: T20, SLSCYKVF
T20 construct: 8mer of LY75 on the peptide microarray, chart Region 2
T20 peptide: SLSCYKVF
Protocol: as §1, §2

NGSRWIQY = biological target: T21, NGSRWIQY
T21 construct: 8mer of LY75 on the peptide microarray, chart Region 10
T21 peptide: NGSRWIQY
Protocol: as §1, §2

GSRWIQYK = biological target: T22, GSRWIQYK
T22 construct: 8mer of LY75 on the peptide microarray, chart Region 10
T22 peptide: GSRWIQYK
Protocol: as §1, §2

SRWIQYKG = biological target: T23, SRWIQYKG
T23 construct: 8mer of LY75 on the peptide microarray, chart Region 10
T23 peptide: SRWIQYKG
Protocol: as §1, §2

YKGHCYKS = biological target: T24, YKGHCYKS
T24 construct: 8mer of LY75 on the peptide microarray, chart Region 10
T24 peptide: YKGHCYKS
Protocol: as §1, §2

Measured: binding result

B1: LY75_A1 (antibody, V domains shown)
VH: EVQLVESGGGLVKPGGSLRLSCAASGFTYSNAWMSWVRQAPGKGLEWVGRIKSKTDGGTTDYAAPVQGRFTISRDDSKNTLYLQMNSLKTEDTAVYYCTIFGVVSFDYWGQGTLVTVSS
VL: DVQMTQSPSSLSASVGDRVTITCRASQSISDYLSWYQQRPGKAPNLLIYAASNLKTGVPSRFSGSGSGTDFTLTISTLQPEDFATYYCQQSYRSPWTFGQGTKVEIKR
notes: detected with anti-human IgG in the microarray; also called antibody LY75_A1; LY75_A1 monoclonal antibody
binds: all assays above
